Experiment [1] deals with T1, human A2 domain of Tenascin-C (TNC A2), recombinant (human, UniProt P24821 1167-1256, limits assumed, biotinylated via a C-terminal avi-tag (Example 5)).
T1 construct: domain: A2 domain of Tenascin-C; also called human TNC A2
T1 sequence (looked up): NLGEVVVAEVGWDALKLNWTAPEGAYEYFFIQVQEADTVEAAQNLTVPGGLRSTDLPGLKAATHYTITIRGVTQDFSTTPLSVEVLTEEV
Nature of the experiment: SPR (ProteOn XPR36), NLC chip, biotinylated TNC A2 as ligand (250 RU), construct as analyte, 1:1 global fit; human TNC A2 as ligand.

The target of experiment [2] is T2, human Fibroblast Activation Protein (FAP), recombinant (human, UniProt Q12884 27-760).
T2 construct: they are treated as one molecule; also called Hu FAP; huFAP
T2 sequence (Q12884 27-760 limits assumed): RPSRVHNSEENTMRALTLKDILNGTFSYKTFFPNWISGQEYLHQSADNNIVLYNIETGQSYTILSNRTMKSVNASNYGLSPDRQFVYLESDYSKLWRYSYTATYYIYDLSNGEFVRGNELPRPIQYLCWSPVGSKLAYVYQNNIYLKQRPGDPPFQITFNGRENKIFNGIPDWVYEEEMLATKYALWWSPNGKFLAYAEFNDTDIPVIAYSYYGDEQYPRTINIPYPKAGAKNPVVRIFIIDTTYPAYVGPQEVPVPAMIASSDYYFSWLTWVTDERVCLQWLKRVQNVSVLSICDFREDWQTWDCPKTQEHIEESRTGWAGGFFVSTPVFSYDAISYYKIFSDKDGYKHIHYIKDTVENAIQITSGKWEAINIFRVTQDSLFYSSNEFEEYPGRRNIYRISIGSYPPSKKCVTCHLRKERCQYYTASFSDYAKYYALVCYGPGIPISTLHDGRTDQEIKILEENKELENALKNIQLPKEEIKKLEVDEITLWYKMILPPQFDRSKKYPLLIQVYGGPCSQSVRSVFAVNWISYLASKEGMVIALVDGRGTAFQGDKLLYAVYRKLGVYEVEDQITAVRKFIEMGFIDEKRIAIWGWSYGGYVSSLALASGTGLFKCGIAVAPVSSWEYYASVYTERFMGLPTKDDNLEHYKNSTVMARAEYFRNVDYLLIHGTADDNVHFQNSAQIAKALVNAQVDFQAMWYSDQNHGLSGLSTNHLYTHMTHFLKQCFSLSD
Nature of the experiment: SPR (ProteOn XPR36), GLM chip, huFAP as ligand by amine coupling (500 RU), construct as analyte, 1:1 global fit.

Experiment [3] concerns the target T2, human Fibroblast Activation Protein …. In words: SPR (Biacore), His-tagged human FAP captured by anti-His antibody, antibody as analyte, 25 C; apparent bivalent affinity (avidity), 1:1 fit. A general note: SPR reads the build-up and loss of mass on a sensor chip optically.
Method: The FAP binding activity of the IgG-IL-2 qm immunoconjugates based on 4G8 and 28H1 anti-FAP antibodies were determined by surface plasmon resonance (SPR) on a Biacore machine in comparison to the corresponding unmodified IgG antibodies. […] Temperature was 25° C. and HBS-EP was used as buffer. Analyte concentration was 50 nM down to 0.05 nM at a flow rate of 50 μl/min (association: 300 s, dissociation: 900 s, regeneration: 60 s with 10 mM glycine pH 2). Fitting was performed based on a 1:1 binding model, RI=0, Rmax=local (because of capture format).

B1: TNC A2-targeted 2B10-based IgG-IL-10 immunoconjugate with monomeric IL-10 (IL-10M1) (other)
heavy 1: EIVLTQSPGTLSLSPGERATLSCRASQSVSRSYLAWYQQKPGQAPRLLIIGASTRATGIPDRFSGSGSGTDFTLTISRLEPEDFAVYYCQQGQVIPPTFGQGTKVEIKRTVAAPSVFIFPPSDEQLKSGTASVVCLLNNFYPREAKVQWKVDNALQSGNSQESVTEQDSKDSTYSLSSTLTLSKADYEKHKVYACEVTHQGLSSPVTKSFNRGEC
heavy 2: EIVLTQSPGTLSLSPGERATLSCRASQSVSSSYLAWYQQKPGQAPRLLIYGASSRATGIPDRFSGSGSGTDFTLTISRLEPEDFAVYYCQQGQYTPPTFGQGTKVEIKRTVAAPSVFIFPPSDEQLKSGTASVVCLLNNFYPREAKVQWKVDNALQSGNSQESVTEQDSKDSTYSLSSTLTLSKADYEKHKVYACEVTHQGLSSPVTKSFNRGEC
light: EIVLTQSPGTLSLSPGERATLSCRASQSVSSNYLAWYQQKPGQAPRLLIYGAYIRATGIPDRFSGSGSGTDFTLTISRLEPEDFAVYYCQQGQVIPPTFGQGTKVEIKRTVAAPSVFIFPPSDEQLKSGTASVVCLLNNFYPREAKVQWKVDNALQSGNSQESVTEQDSKDSTYSLSSTLTLSKADYEKHKVYACEVTHQGLSSPVTKSFNRGEC
notes: P329G LALA in the Fc; also called 2B10 IgG-IL-10M1; TNCA2 2B10 IgG-IL-10M1
On to B1, for which, in experiment [1], the Kd amounted to 0.052 nM; the koff (as a rule, the first-order rate constant of dissociation) turned out to be 9.35e-05 s⁻¹; the kon (as a rule, the rate constant with which the complex forms) worked out at 1.8e+06 M⁻¹ s⁻¹.

B2: FAP-targeted 4G8-based IgG-IL-10 immunoconjugate with monomeric IL-10 (IL-10M1) (other)
heavy 1: not shown
heavy 2: not shown
light: EVQLLESGGGLVQPGGSLRLSCAASGFTFSRYGMSWVRQAPGKGLEWVSAISGSGGSTYYADSVKGRFTISRDNSKNTLYLQMNSLRAEDTAVYYCAKAHNAFDYWGQGTLVTVSSASTKGPSVFPLAPSSKSTSGGTAALGCLVKDYFPEPVTVSWNSGALTSGVHTFPAVLQSSGLYSLSSVVTVPSSSLGTQTYICNVNHKPSNTKVDKKVEPKSCDSSSSGSSSSGSSSSGAPASSSTKKTQLQLEHLLLDLQMILNGINNYKNPKLTRMLTAKFAMPKKATELKHLQCLEEELKPLEEVLNGAQSKNFHLRPRDLISNINVIVLELKGSETTFMCEYADETATIVEFLNRWITFAQSIISTLTSGGGGSGGGGSGGGGEVQLLESGGGLVQPGGSLRLSCAASGFTFSRYGMSWVRQAPGKGLEWVSAISGSGGSTYYADSVKGRFTISRDNSKNTLYLQMNSLRAEDTAVYYCAKAHNAFDYWGQGTLVTVSSASTKGPSVFPLAPSSKSTSGGTAALGCLVKDYFPEPVTVSWNSGALTSGVHTFPAVLQSSGLYSLSSVVTVPSSSLGTQTYICNVNHKPSNTKVDKKVEPKSCD
notes: P329G LALA in the Fc; also called 4G8 IgG-IL-10M1; FAP 4G8 IgG-IL-10M1
With B2, in experiment [2], the Kd was determined as 0.026 nM, the koff came out at 1.75e-05 s⁻¹ and the kon was 668000 M⁻¹ s⁻¹.

B3: 4G8 IgG (unmodified anti-FAP antibody) (antibody, V domains shown)
VH: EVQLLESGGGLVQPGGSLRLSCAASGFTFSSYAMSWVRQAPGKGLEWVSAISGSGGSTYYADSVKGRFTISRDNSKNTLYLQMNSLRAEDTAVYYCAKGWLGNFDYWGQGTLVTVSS
VL: EIVLTQSPGTLSLSPGERATLSCRASQSVSRSYLAWYQQKPGQAPRLLIIGASTRATGIPDRFSGSGSGTDFTLTISRLEPEDFAVYYCQQGQVIPPTFGQGTKVEIK
B3: the Kd in experiment [3] came to 0.05 nM.

B4: 28H1 IgG (unmodified anti-FAP antibody) (antibody, V domains shown)
VH: EVQLLESGGGLVQPGGSLRLSCAASGFTFSSHAMSWVRQAPGKGLEWVSAIWASGEQYYADSVKGRFTISRDNSKNTLYLQMNSLRAEDTAVYYCAKGWLGNFDYWGQGTLVTVSS
VL: EIVLTQSPGTLSLSPGERATLSCRASQSVSRSYLAWYQQKPGQAPRLLIIGASTRATGIPDRFSGSGSGTDFTLTISRLEPEDFAVYYCQQGQVIPPTFGQGTKVEIK
notes: Corresponding unmodified IgG of the 28H1 immunoconjugate
As to B4, the Kd in experiment [3] was found to be 0.2 nM.
